# Where two headings read alike, the source gives them in different places.
# T1: HLA-A2 (human, UniProt P04439 25-302 at identity 0.94))
# T1 chain: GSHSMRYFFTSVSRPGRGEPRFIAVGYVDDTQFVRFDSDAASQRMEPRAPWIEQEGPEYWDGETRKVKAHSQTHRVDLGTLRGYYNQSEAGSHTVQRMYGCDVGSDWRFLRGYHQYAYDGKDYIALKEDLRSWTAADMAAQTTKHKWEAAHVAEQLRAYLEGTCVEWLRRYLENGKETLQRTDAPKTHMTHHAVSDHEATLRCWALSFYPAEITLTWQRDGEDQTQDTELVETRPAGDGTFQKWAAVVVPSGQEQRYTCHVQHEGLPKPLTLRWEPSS
# B1: FAPα^463-471 (peptide)
# peptide: ALVCYGPGI
# B2: FAPα^486-494 (peptide)
# peptide: KILEENKEL
# B3: FAPα^584-592 (peptide)
# peptide: LLYAVYRKL
# B4: FAPα^560-568 (peptide)
# peptide: YLASKEGMV
# B5: FAPα^113-121 (peptide)
# peptide: YLESDYSKL
# B6: FAPα^639-647 (peptide)
# peptide: GLFKCGIAV
# B7: FAPα^104-112 (peptide)
# peptide: GLSPDRQFV
# What was measured:
# HLA-A2 [1] = target: T1, HLA-A2; assay: competitive binding assay (flow cytometry)
# HLA-A2 [2] = target: T1, HLA-A2; assay: competitive binding assay (flow cytometry)
Binder,IC50 (HLA-A2 [1]),IC50 (HLA-A2 [2])
B1,4.7 µM,4.7 µM
B2,33.8 µM,33.8 µM
B3,13.3 µM,–
B4,15.3 µM,–
B5,8 µM,–
B6,5.6 µM,–
B7,9.1 µM,–

# Source: patent US20080058272A1 (published 2008)
